19 molecules from patent publication US20230279079A1 (CHANG GUNG MEMORIAL HOSPITAL LINKOU, published 2023) can be followed below.

Assay [1] concerns the target T1, SARS-CoV-2 spike S2 subunit (SARS-CoV-2, UniProt P0DTC2 686-1213).
T1 construct: domain: S2 subunit
Nature of the assay: ELISA.

In another assay the target is T2, SARS spike S1 subunit (severe acute respiratory syndrome …, UniProt P59594 14-667).
T2 construct: domain: S1 subunit
Kind of assay: ELISA. On the technique in general: An ELISA detects its analyte on a solid surface through an enzyme-linked reagent.

The target in assay [2] is T3, MERS spike extracellular domain (Middle East respiratory syndrome …, UniProt K9N5Q8 18-1296).
T3 construct: extracellular domain
Nature of the assay: ELISA.

The target of assay [3] is T4, Human coronavirus OC43 spike extracellular domain (human coronavirus OC43, UniProt P36334 14-1297).
T4 construct: extracellular domain
Kind of assay: ELISA.

Assay [4] deals with T5, SARS-CoV-2 nucleocapsid protein (SARS-CoV-2, UniProt P0DTC9 1-419).
T5 construct: also called N protein
Nature of the assay: ELISA on recombinant protein.

B1: FJ 10B (antibody, V domains shown)
VH: QVQLVQSGAEVKKPGESLRISCKGSGYSFTSYWISWVRQMPGKGLEWMGRIDPSDSYTNYSPSFQGHVTISADKSISTAYLQWSSLKASDTAMYYCARLDPRYGPDYYGMDVWGQGTTVTVSS
VL: AIRMTQSPSSLSASVGDRVTITCRASQSISSYLNWYQQKPGKAPKLLIHAASSLQSGVPSRFSGSGSGTDFTLTMSSLQPEDFATYYCQQSYSTPLTFGGGTKVEIR
B1: the binding result was “no binding” in assay [1], “binds” in the assay with SARS spike S1 subunit, “no binding” in assay [2] and “no binding” in assay [3].

B2: FN 12A (antibody, V domains shown)
VH: QVQLVQSGAEVKKPGSSVKVSCKASGGTFSSYAISWVRQAPGQGLEWMGRIIPILGIANYAQKFQGRVTITADKSTSTAYMELSSLRSEDTAVYYCARSGCSSTSCPSNLYYYYYGMDVWGQGTTVTVSS
VL: QSVLTQPPSVSAAPGQKVTISCSGSSSNIGNNYVSWYQQLPGTAPKLLIYDNNKRPSGIPDRFSGSKSGTSATLGITGLQTGDEADYYCGTWDSSLSALVFGGGTKLTVL
As to B2, the binding result in assay [1] was “no binding”; in the assay with SARS spike S1 subunit it was “binds”; in assay [2] it was “binds”; in assay [3] it was “binds”.

B3: EZ 9C (antibody, V domains shown)
VH: EVQLVESGGGLVQPGGSLRLSCSASGFTLNGYAMHWVRQAPGKGLEYVSSLSNRGDNTRYAESVKGRFLISRDIAKDTLYLQMSSLRPEDTAVYYCGKGLLSASGGLPIDDWGQGTLVTVSS
VL: QSVLTQPPSVSAAPGQKVTISCSGSSSNIGNNYVSWYQQFPGTAPKLLIYDNNKRPSGIPDRFSGSKSGTSATLGITGLQTGDEAAYYCATWDSSLSAGVFGGGAKLTVL
Turning to B3, in assay [4], the binding result is on record as “binds”.

B4: EZ 11C (antibody, V domains shown)
VH: EVQLVESGAEVKKPGASVKVSCKVSGYTLTELSMHWVRQAPGKGLEWMGGFDPEDGETIYAQKFQGRVTMTEDTSTDTAYMELSSLRSEDTAVYYCATTTVTTPTANWFDPWGQGTLVTVSS
VL: QSALTQPPSVSAAPGQKVTISCSGSSSNIGNNYVSWYQQLPGTAPKLLIYENNKRPSGIPDRFSGSKSGTSATLGITGLQTGDEADYYCGTWDSSLRQVVFGGGTKLTVL
On to B4, for which the binding result in assay [4] was “binds”.

B5: FD 5B (antibody, V domains shown)
VH: not shown
VL: QSVLTQPPSASGSPGQSVTISCTGTSSDAGGYNYVSWYQQHPGKAPKLMIYEVSKRPSGVPDRFSGSKSGNTASLTVSGLQAEDEADYYCSSYAGSNNPFVFGTGTKVTVL
B5: in assay [4], the binding result is “binds”.

B6: EW 10C (antibody, V domains shown)
VH: EVQLVESGGGLVQPGGSLRLSCAASGFTFNKYKMTWVRQAPGKGLEWVANIKEDGSEKNYVDSVKGRFTISRDNARNSVYMHLNNLRVEDTAVYYCARGRTLGDWGQGTTVTVSS
VL: AIRMTQSPLSLPVTLGQPASISCRSSQSLVHSDGNTYLNWFQQRPGQSPRRLIYKVSNRDSGAPDRFSGSGSGTDFTLKISRVEAEDVGVYYCMQGTHWPPITFGPGTKVDIK
For the molecule B6, in assay [4], the binding result is on record as “binds”.

B7: EW 5A (antibody, V domains shown)
VH: EVQLVESGGGLVQPGGSLRLSCSVSGFPFGTYAMHWVRQAPGKGLDYVSAINNDGSITYYADSVRGRFTVSRDNSENTLYLRLSGLRPDDTAIYYCVKDRGSVIRDFDVWGRGTLVTVSS
VL: QTVVTQEPSLTVSPGGTVTLTCASSTGTVTSDYYPNWFQQKPGQAPRPLIFGTAYRHSWTPARFSGSLLGGKAALTVSDVQPEDEADYYCLLYCGGGQLFGGGTKLTVL
As to B7, the binding result in assay [4] is reported as “binds”.

B8: EZ 7A (antibody, V domains shown)
VH: EVQLVESGAEVKKPGESLKISCKGSGYSFTSYWIGWVRQMPGKGLEWMGIIYPGDSDTRYSPSFQGQVTISADKSISTAYLQWSSLKASDTAMYYCARGWVYRGFPYYGMDVWGQGTMVTVSS
VL: QSALTQPRSVSGSPGQSVTISCTGTSSDVGGYNYVSWYQQHPGKAPKLMIYDVSKRPSGVPDRFSGSKSGNTASLTISGLQAEDEADYYCCSYAGSYTLVFGGGTKLTVL
Regarding B8, the binding result in assay [1] is “no binding”; in the assay with SARS spike S1 subunit, “binds”; in assay [2], “binds”.

B9: EW 1A (antibody, V domains shown)
VH: EVQLVESGGGVVQPGSSLRLSCETSGFTFSGHAMHWVRQAPGKGLEWLAQIWFDGSEKYYADSVKGRFTISRDNSKKILYMQMNSLRVQDTAVYYCARDGQHLAPFAMDVWGQGTMVTVSS
VL: QSVLTQPASVSGSPGQSITISCTGTSSDVGASNRVSWYQHSPGEAPKLIIYQVTVRPSGVSDRFSGSKSGNTASLTISGLRTEDEAEYYCNSFVSGDSWVFGGGTKVTVL
B9: the binding result in assay [4] is listed as “binds”.

B10: EZ 9B (antibody, V domains shown)
VH: not shown
VL: SYELTQPPSVSVAPGQTARITCGGNNIGSKSVHWYQQKPGQAPVLVVYDDSDRPSGIPERFSGSNSGNTATLTISRVEAGDEADYYCQVWDSSSDHPSWVFGGGTKLTVL
For B10, the binding result in assay [4] is reported as “binds”.

B11: EW 9A (antibody, V domains shown)
VH: EVQLLESGGGVVQPGRSLRLSCAASGFTFSSYGMHWVRQAPGKGLEWVAVIWYDGSNKYYADSVKGRFTISRDNSKNTLYLQMNSLRAEDTAVYYCAKDMWALYDILTGYYTPYYYYGMDVWGQGTTVTVSS
VL: SYELTQPPSVSVSPGQTARITCSADALPKQYAYWYQQKPGQAPVLVIYKDSERPSGIPERFSGSSSGTTVTLTISGVQAEDEADYYCQSADSSGTYWVFGGGTKLTVL
Consider B11, for which the binding result in assay [4] is “binds”.

B12: EZ 11A (antibody, V domains shown)
VH: EVQLVESGGGLVQPGGSLRLSCAASGFTFSSYWMSWVRQAPGKGLEWVANIKQDGSEKYYVDSVKGRFTISRDNAKNSLYLQMNSLRAEDTAVYYCARDDYSGSYYWEFDYWGQGTLVTVSS
VL: QPVLTQSPSASASLGASVKLTCTLSSGHSSYAIAWHQQQPEKGPRYLMKLNSDGSHSKGDGIPDRFSGSSSGAERYLTISSLQSEDEADYYCQTWGTGIWVFGGGTKLTVL
For B12, the binding result in assay [4] is “binds”.

B13: FI 4A (antibody, V domains shown)
VH: EVQLVESGGGLVKPGGSLRLSCAASGFTFSRFSMNWVRQAPGKGLEWVSSISSSGSYIYFADSVKGRFTISRDNAKNSLYLQMNSLRAEDTAIYYCATYLFGDSHTYWGQGTLVTVSS
VL: QSVLTQPHSVSESPGKTVTISCTGSSGSIASNYVQWYQQRPGSAPTTVIYEDNQRPSGVPDRFSGSIDSSSNSASLTISGLKTEDEADYYCQSYDSSNLHWVFGGGTKLTVL
Consider B13, for which the binding result (in assay [1]; in the assay with SARS spike S1 subunit; in assay [2]; in assay [3]) was “no binding” in each case.

B14: EZ 9A (antibody, V domains shown)
VH: EVQLVESGGGLVQPGESLRVSCAASGFTFSNYWMHWVRQVPGKGPVWVSIINTDGSITRYVDSVRGRFTISRDNAKNTVHLQMNSLTAEDTAIYYCARDVNRYPDYWGQGTLVTVSS
VL: QSALTQPASVSGSPGQSITISCTGTYSDVGYYNYVSWYQQQPGKAPKVIIHGDINRPFGVSNRFSGSKSGNTASLTISGLQAEDEADYFCCSYVNNGAWVFGGGTKLTVL
With B14, the binding result in assay [4] is listed as “binds”.

B15: FM 7B (antibody, V domains shown)
VH: EVQLVQSGAEVKKPGASVKVSCKASGYTFTSYAMHWVRQAPGQRLEWMGWINTGNGNTKYSQKFQGRVTITRDTSASTAYMELSSLRSEDTAVYYCARDPTYCSSTSCYPFSWFDPWGQGTLVTVSS
VL: NFMLTQPPSVSVAPGQTARITCGGNNIGSKSVHWYQQKPGQAPVLVVYDDSDRPSGIPERFSGSNSGNTATLTISRVEAGDEADYYCQVWDSTGDHSWVFGGGTKLTVL
For B15, the binding result is on record as “no binding” in assay [1], “binds” with SARS spike S1 subunit, “no binding” in assay [2] and “no binding” in assay [3].

B16: EY 9C (antibody, V domains shown)
VH: EVQLVESGGGLVKPGGSLRLSCAASEFTFSSYTLNWVRQAPGKGLEWVSSISTSSAYIYYADSVKGRFTISRDNAKKSLSLQMNSLTAEDTAVYYCATWGGAPFDYWGQGTMVTVS
VL: QSVLTQPASVSGSPGRSITISCTETSSDVGTYNLVSWYQQHPGKAPKLMIFDDNKRPSGVSNRFSGSKSGNTASLTISGLQAEDEADYYCCSYAGGRTFNVLFGGGTKLTVL
In the case of B16, the binding result in assay [4] was “binds”.

B17: EY 12B (antibody, V domains shown)
VH: EVQLVESGGDLVQPGRSLRLSCAASGFTFDYFAMHWVRQVPGKGLEWVSGIRWNSETIGYADSVKGRFTISRDNAKKSLYLEMNSLRSEDTAFYYCAKGRSGYGHTAFDVWGQGTMVTVSS
VL: QSALTQPPSVSGAPGQRVTISCTGSSSNIGANYDVHWYQRLPGTAPKLLIYDNNNRPSGVPDRFSGSKSGTSASLAIAGLQAEDEADYYCQSYDSSLSASVFGGGTKLTVL
Turning to B17, in assay [4], the binding result was “binds”.

B18: EZ 8C (antibody, V domains shown)
VH: EVQLVESGGGLVKPGGSLRLSCAASGFTFSSYTMNWVRQAPGKGLEWVSSFIANSDYKFYADSVKGRFTISRDNAKSSLYLQMNSLRAEDTAVYYCARELTSYGSHDAFDIWGQGTMVTVSS
VL: QSALTQPASVSGSPGQSITISCTGTSSDVGGYNYVSWYQQHPGKAPKLLIYEVTNRPSGVSDRFSGSKSANVASLTISGLQAEDEADYYCSSYTTTDSVVFGGGTKLTVL
Take B18: the binding result in assay [4] is reported as “binds”.

B19: EY 12A (antibody, V domains shown)
VH: EVQLVESGPGLVKPSQTLSLTCAVSGGSISSGGYYWSWIRQPPGKGLELIGYTDYTGKTLYNPSLKSRLTISVDTSKNQFSLKLRSVTAADTAVYYCARGMTQDDILTGFNRPHWYFDLWGRGSLVTVSS
VL: QSVLTQPPSVSGAPGQRVTISCTGSSSNIGAGYDVHWYQQLPGTAPKVVIYRNMNRPSGVPDRFSGSKSGTSASLAITGLQAEDEADYYCQSFDSSLSDFVVFGGGTKLTVL
B19: the binding result in assay [4] was “binds”.
